Tested on: K4 kissing-loop RNA reporter
Test: apparent KD of K4 kissing-loop reporter; higher = weaker reporter binding
Conditions: Eterna round: R107
Method: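 RNA-MaP round R107: designed RNA switches with theophylline, tryptophan, arginine or FMN aptamers are transcribed on-chip within common flanks. They are titrated with a labelled K4 kissing-loop RNA reporter in RNA-MaP buffer (100 mM Tris pH 7.5, 80 mM KCl, 4 mM MgCl2), without ligand or with the indicated ligand. Median apparent KD per design.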

[1] = input ligand: theophylline 20 uM
[2] = input ligand: tryptophan 2.4 mM
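Also: bound reporter read as fluorescence of individual clusters on recovered sequencing chips by microscopy, with normalized cluster intensities fitted with a binding model.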

| Sequence | apparent KD of K4 kissing-loop reporter (input ligand: FMN 200 uM) | apparent KD of K4 kissing-loop reporter (input ligand: arginine 13.2 mM) | apparent KD of K4 kissing-loop reporter (input ligand: none) | apparent KD of K4 kissing-loop reporter [1] | apparent KD of K4 kissing-loop reporter [2] |
| --- | --- | --- | --- | --- | --- |
| CCCAGUGAUGUUGGGAGUAGCCACAGGGAAGGAGCGUGCUAGAGCACAGGUAGGUCGCCCACUGGGUCAGUGAUGUUGGUCGGGU [Same State Arginine A GF 28] | 0.275 µM | 0.178 µM | 0.186 µM | 0.361 µM | 0.208 µM |
| GGUGCGCUGUUAGUGAUGUUAACCGAGGAUACCAGUUAGGCGUCUAACCCUUGGCAGCCUCUCUGGUCUCAUCAACGUUGUGCUA [theeternabot_exclusion_KL_Theo_A_37] | 0.6 µM | 0.431 µM | 0.599 µM | 0.641 µM | 0.463 µM |
| AACCUGACGACGAGUGAUGUUCGAUGGGAAGGAGCGCGAAGAAAUGCAGGUAGGUCGCCCUAAGAGAGUGUAACGUCAGGAUUAU [1.)] | 0.364 µM | 0.303 µM | 0.286 µM | 0.348 µM | 0.191 µM |
| CCUAUCUCAUACGAUACCAGUCAACGAUAUUUUAUCGAUGCCAUCACCGAGUGAUGUUCGGACCCUUGGCAGCGUAUGGGAUAGG [Ex Theophylline B K4 4] | 0.248 µM | 0.244 µM | 0.27 µM | 0.445 µM | 0.251 µM |
| AGUGAUAUAUGAGGAUAUGGGAUAGUUAAUGAGUUAGUUUUAGUGUUGUUUGGUUAGUGAUGUUAUUUAGAAGGCGUGAGUGAUG [tptymullin] | 0.107 µM | 0.0743 µM | 0.0767 µM | 0.106 µM | 0.0744 µM |
| AGGUUUUGAUUAGGAUAUGCACUGAGGACGAGAAUAUAGUGAUGUUAUAUAAUAGGAAUUAGUAGAGUAGAAGGGAUUGAGGUUU [SSFMNB.V] | 0.244 µM | 0.153 µM | 0.183 µM | 0.194 µM | 0.161 µM |
| GCCGUACGCAUGGAUACCAGAGUCUUUCUAGUGCCUCUGGAGUACAGUGAUGUUGUGCCACUCCCUUGGCAGCCAUGCGUACGGC | 1.08 µM | 0.647 µM | 0.906 µM | 0.671 µM | 0.768 µM |
| GCUAUGGUAGGAAGGAGCGCUAAUUUAUUUUUACGAGUGAUGUUCGGUAGUAGAUUGUUAAAGCAGGUAGGUCGCCUACUAUAGC [Arginine B K4 17] | 0.103 µM | 0.124 µM | 0.106 µM | 0.0857 µM | 0.0925 µM |
| AUGUCUGAUAGCAGUGAUGUUGCUUCGGAUACCAGACGAGAUCAUGUCCCUUGGCAGCUGACACGGCACGUGCUAGGUUAGAUGG [whbob_Ex_Theo_A_th73] | 0.121 µM | 0.115 µM | 0.111 µM | 0.0947 µM | 0.115 µM |
| GCGCGGGAGUGAUGUUCCAAGUGGUGUUAACGAGGACCGGUACGGCCGCCACUCGUUACGGCCGGGCCGUAGGAUAAACUGGCGC [Same State - Tryptophan A (Freestyle 15)] | 0.373 µM | 0.418 µM | 0.479 µM | 0.544 µM | 0.398 µM |
| GGGCGUGGCGCGGCCGCCACUGCGCCUGGGUGCUCGCUGAGUGAUGUUCGUCGGCGGUUGGGUGGUAGGACCGGGUGCUGGCCGG [BDazzled - #12 SS Tryptophan B] | 0.773 µM | 0.318 µM | 0.581 µM | 0.595 µM | 0.471 µM |
| GUAUCGCUAGGAGGAUAUUCCAUUUUACAUAUAAAUGGAUAUGCGGAGUGAUGUUCCGAUUUACGGGAAGAAGGCCUAGUGAUAC [FMN B 20] | 0.138 µM | 0.22 µM | 0.219 µM | 0.256 µM | 0.208 µM |
| AAGUGAUGUUGUAGUGAUGUUGUGAUGUUGCAGGAUAUAUAGUGAUGUAGAAGGGUAAGUACUGAUUUUGUUUGUGAGUGAUGUU [zqqzzrmullin] | 0.0928 µM | 0.0401 µM | 0.0738 µM | 0.0611 µM | 0.0678 µM |
| GUCGAUGGUAACCGCUGACGUCGAUGAUGGGAGGAUAUGUUAGUUGACAGAAGGCCCAGUGAUGUUGGGCGUUUGUCUUGGUAUA [Ustecexe] | 0.517 µM | 0.143 µM | 0.145 µM | 0.134 µM | 0.136 µM |
| AUUAAUAACAGAGGAUAUGCAUUUUUAUUAUUUUUAAAUAUUAAAUGCAGUGAUGUUGCAUAUUAAGCAGAAGGCUGAUUUAUUU [JR_SSFMNB_Sub012] | 0.117 µM | 0.271 µM | 0.211 µM | 0.279 µM | 0.147 µM |
| CAGGUCACAGAGUGAUGUUCUGUGUCCGAAGGAGCGAUGGUCGCAUCAGGUAGGUCGCGGAUACAGUUGAAGUCCUAUCUAGACG [#10 K4 Arginine A Exclusion] | 0.143 µM | 0.111 µM | 0.119 µM | 0.123 µM | 0.134 µM |
| AUACGCGAUAGCGUAUAUAACAAAUCAGAAGGAGCGUGGAAGUACACAGGUAGGUCGCUGAAAAUAGGACUAGUGAUGUUAGUUA [JR_Nu_SSArginiA_Sub026] | 0.211 µM | 0.193 µM | 0.232 µM | 0.172 µM | 0.166 µM |
| UAAGUAAGGGAUGAUACCAGAGAGUGAUGUUCUCAAGCGCUAUAGGAUAGCCUUAUCCACCUCCCUUGGCAGCAUACCCACUGGG [theeternabot_exclusion_KL_Theo_B_13] | 0.333 µM | 0.311 µM | 0.355 µM | 0.346 µM | 0.341 µM |
| CCUUCCACAGAAGGAUAUCGGAGUGAUGUUCCCAAGCAGACCUCAAAGUGGGUAGCCAGUCAGUUCCGAGAAGGUCUGCAGCGAG [theeternabot_exclusion_KL_FMN_B_26] | 0.25 µM | 0.28 µM | 0.271 µM | 0.37 µM | 0.189 µM |
| GUGUCCUAGUCGGCCGCCACUGGUACGAAAAUAGAAGGACGUGUGCACAUGAGUGAUGUUCAUGUCAGGACCGGGACUAGGGUGU [KL-SSTryp-B6 Brourdwalk2] | 0.281 µM | 0.304 µM | 0.367 µM | 0.332 µM | 0.316 µM |
| ACACUAUCGUCAUAGACGGUAGUGACAUCUCAGGAUAUAAGUGAUGUUAGAAGGGAGAAAAUCUUAGGUAUCGAAUAGAUACCAA [FmnA 8 #K4BetweenAptamer #OpenEnded] | 0.415 µM | 1.1 µM | 1.27 µM | 0.821 µM | 1.38 µM |
